Measured values taken from paper PMC3629208, “Effective Identification of Akt Interacting Proteins by Two-Step Chemical Crosslinking, Co-Immunoprecipitation and Mass Spectrometry” (PLoS ONE, 2013).

B1: ErbB3 binding protein 1 (EBP1, also called proliferation-associated protein 2G4) (natural protein, mouse (endogenous in Neuro 2A), UniProt P50580 1-394, looked up)
chain: MSGEDEQQEQTIAEDLVVTKYKMGGDIANRVLRSLVEASSSGVSVLSLCEKGDAMIMEETGKIFKKEKEMKKGIAFPTSISVNNCVCHFSPLKSDQDYILKEGDLVKIDLGVHVDGFIANVAHTFVIGVAQGTQVTGRKADVIKAAHLCAEAALRLVKPGNQNTQVTEAWNKVAHSFNCTPIEGMLSHQLKQHVIDGEKTIIQNPTDQQKKDHEKAEFEVHEVYAVDVLVSSGEGKAKDAGQRTTIYKRDPSKQYGLKMKTSRAFFSEVERRFDAMPFTLRAFEDEKKARMGVVECAKHELLQPFNVLYEKEGEFVAQFKFTVLLMPNGPMRITSGPFEPDLYKSEMEVQDAELKALLQSSASRKTQKKKKKKASKTVENATSGETLEENGAGD
notes: EBP1 (proliferation-associated protein 2G4), mouse, endogenous; gi 116283229, 42 kDa; source: endogenous, Neuro 2A lysate
B2: extracellular regulated kinase-1 and -2 (ERK1/2) (natural protein, mouse (endogenous in Neuro 2A), UniProt P63085 1-358, looked up)
chain: MAAAAAAGPEMVRGQVFDVGPRYTNLSYIGEGAYGMVCSAYDNLNKVRVAIKKISPFEHQTYCQRTLREIKILLRFRHENIIGINDIIRAPTIEQMKDVYIVQDLMETDLYKLLKTQHLSNDHICYFLYQILRGLKYIHSANVLHRDLKPSNLLLNTTCDLKICDFGLARVADPDHDHTGFLTEYVATRWYRAPEIMLNSKGYTKSIDIWSVGCILAEMLSNRPIFPGKHYLDQLNHILGILGSPSQEDLNCIINLKARNYLLSLPHKNKVPWNRLFPNADSKALDLLDKMLTFNPHKRIEVEQALAHPYLEQYYDPSDEPIAEAPFKFDMELDDLPKEKLKELIFEETARFQPGYRS
notes: ERK1/2, mouse, endogenous; the MS entry is a single 42 kDa protein; source: endogenous, Neuro 2A lysate
B3: nuclear distribution gene C (Nudc, also named nuclear migration gene C) (natural protein)
chain: not shown
notes: nuclear migration protein nudC, mouse, endogenous; gi 6754910, 38 kDa; source: endogenous, Neuro 2A lysate
B4: glycogen synthase kinase (GSK)-3β (enzyme, mouse (endogenous in Neuro 2A), UniProt Q9WV60 1-420, looked up)
chain: MSGRPRTTSFAESCKPVQQPSAFGSMKVSRDKDGSKVTTVVATPGQGPDRPQEVSYTDTKVIGNGSFGVVYQAKLCDSGELVAIKKVLQDKRFKNRELQIMRKLDHCNIVRLRYFFYSSGEKKDEVYLNLVLDYVPETVYRVARHYSRAKQTLPVIYVKLYMYQLFRSLAYIHSFGICHRDIKPQNLLLDPDTAVLKLCDFGSAKQLVRGEPNVSYICSRYYRAPELIFGATDYTSSIDVWSAGCVLAELLLGQPIFPGDSGVDQLVEIIKVLGTPTREQIREMNPNYTEFKFPQIKAHPWTKVFRPRTPPEAIALCSRLLEYTPTARLTPLEACAHSFFDELRDPNVKLPNGRDTPALFNFTTQELSSNPPLATILIPPHARIQAAASPPANATAASDTNAGDRGQTNNAASASASNST
notes: glycogen synthase kinase-3 beta, mouse, endogenous; gi 9790077, 47 kDa; source: endogenous, Neuro 2A lysate

Target: T1, Akt (protein kinase B), Akt1 (mouse (endogenous in Neuro 2A), UniProt P31750 1-480)
T1 construct: Akt1, mouse, endogenous in Neuro 2A cells, captured by a rabbit anti-Akt antibody; MS peptide assigned to Akt1 (gi/6753034); Bait of all co-IPs; The anti-Akt antibody may also capture other Akt isoforms; Cells were unstimulated or IGF-1 stimulated (phospho-T308 as the mark of active Akt); source: endogenous, Neuro 2A lysate
Experiment: co-IP; two-step crosslinking co-IP (DSS-fixed anti-Akt antibody, DSP-crosslinking of the bound complexes) from Neuro 2A lysate, western blot; cells with or without IGF-1 (10 ng/mL, 10 min); band intensity normalized to Akt level
Details: partners not purified

T1 sequence (P31750 whole entry, canonical isoform): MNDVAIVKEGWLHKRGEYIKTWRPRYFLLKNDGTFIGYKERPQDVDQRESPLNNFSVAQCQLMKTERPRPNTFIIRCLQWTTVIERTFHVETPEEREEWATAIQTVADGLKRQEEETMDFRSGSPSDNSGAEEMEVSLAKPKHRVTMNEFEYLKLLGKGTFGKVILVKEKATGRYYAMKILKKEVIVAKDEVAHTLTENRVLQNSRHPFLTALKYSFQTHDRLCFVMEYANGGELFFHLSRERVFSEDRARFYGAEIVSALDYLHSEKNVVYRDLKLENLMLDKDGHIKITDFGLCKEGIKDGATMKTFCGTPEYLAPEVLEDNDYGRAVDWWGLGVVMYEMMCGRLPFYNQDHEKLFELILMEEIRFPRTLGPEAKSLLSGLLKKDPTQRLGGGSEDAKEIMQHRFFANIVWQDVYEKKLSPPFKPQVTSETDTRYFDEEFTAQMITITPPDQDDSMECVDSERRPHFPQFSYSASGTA

Binder	fold increase of association, IGF-stimulated (active Akt) against unstimulated, normalized to Akt level [fold]	fold change of association, IGF-stimulated against unstimulated, normalized to Akt level [fold]	fold increase of co-precipitated ERK1/2 with DSP-crosslinking against without, normalized to Akt level [fold]
B1	2.4		
B2		0.98	2.5 ± 0.2
B3		0.97 ± 0.1	
B4	1.8		
